Patent publication US20250215052A1 (UNIVERSITY OF COPENHAGEN, published 2025)
Where no end group is shown, it is not given here.

Target: T1, Protein Interacting with C Kinase-1 (PICK1), purified recombinant (UniProt Q9EP80 1-416)
T1 construct: also called purified PICK1
Assay: fluorescence polarization competition, tracer 5-FAM-TAT-C5, purified PICK1

T1 sequence (Q9EP80 whole entry): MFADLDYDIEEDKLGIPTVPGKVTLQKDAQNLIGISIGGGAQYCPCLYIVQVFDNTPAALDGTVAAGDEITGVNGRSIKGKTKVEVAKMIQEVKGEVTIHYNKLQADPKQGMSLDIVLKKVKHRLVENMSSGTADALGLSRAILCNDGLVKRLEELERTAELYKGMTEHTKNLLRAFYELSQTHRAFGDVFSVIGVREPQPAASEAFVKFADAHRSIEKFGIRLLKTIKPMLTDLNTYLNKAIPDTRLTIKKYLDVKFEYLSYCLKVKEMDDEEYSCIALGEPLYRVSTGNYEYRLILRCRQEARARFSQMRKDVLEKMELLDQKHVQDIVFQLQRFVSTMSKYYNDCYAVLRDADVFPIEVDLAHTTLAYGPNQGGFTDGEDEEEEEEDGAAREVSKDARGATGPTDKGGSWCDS

B1: MAP-P4-(C5)2 (peptide)
peptide 1: HWLKV
peptide 2: KLALKLALKALKAALKLA
modifications: not fully specified (N-terminus); also: dimer: two HWLKV copies joined at N-termini by NPEG4 linker, MAP peptide conjugated to the NPEG4 linker
notes: also called MAP-peptide
In the case of B1, the “Fold affinity change (vs TAT-P4-(C5)2)” value is reported as 0.8 fold and the Ki is reported as 5.1 nM.
